From US20130012451

Molecular target: CD44, P16070
Sequence (P16070 other isoform, or with tags, fused parts or gaps): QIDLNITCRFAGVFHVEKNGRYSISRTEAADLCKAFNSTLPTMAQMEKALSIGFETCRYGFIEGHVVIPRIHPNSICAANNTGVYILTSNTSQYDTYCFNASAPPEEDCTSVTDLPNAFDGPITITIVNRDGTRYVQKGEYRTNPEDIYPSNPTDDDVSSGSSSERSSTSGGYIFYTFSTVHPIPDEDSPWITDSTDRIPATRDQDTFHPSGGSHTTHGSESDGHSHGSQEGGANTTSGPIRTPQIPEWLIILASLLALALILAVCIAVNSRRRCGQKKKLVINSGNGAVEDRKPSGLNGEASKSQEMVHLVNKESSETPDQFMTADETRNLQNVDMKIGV

B1: Matrix Metalloproteinase-9 (MMP-9), wild type (protein)
chain: APRQRQSTLVLFPGDLRTNLTDRQLAEEYLYRYGYTRVAEMRGESKSLGPALLLLQKQLSLPETGELDSATLKAMRTPRCGVPDLGRFQTFEGDLKWHHHNITYWIQNYSEDLPRAVIDDAFARAFALWSAVTPLTFTRVYSRDADIVIQFGVAEHGDGYPFDGKDGLLAHAFPPGPGIQGDAHFDDDELWSLGKGVVVPTRFGNADGAACHFPFIFEGRSYSACTTDGRSDGLPWCSTTANYDTDDRFGFCPSERLYTQDGNADGKPCQFPFIFQGQSYSACTTDGRSDGYRWCATTANYDRDKLFGFCPTRADSTVMGGNSAGELCVFPFTFLGKEYSTCTSEGRGDGRLWCATTSNFDSDKKWGFCPDQGYSLFLVAAHEFGHALGLDHSSVPEALMYPMYRFTEGPPLHKDDVNGIRHLYGPRPEPEPRPPTTTTPQPTAPPTVCPTGPPTVHPSERPTAGPTGPPSAGPTGPPTAGPSTATTVPLSPVDDACNVNIFDAIAEIGNQLYLFKDGKYWRFSEGRGSRPQGPFLIADKWPALPRKLDSVFEERLSKKLFFFSGRQVWVYTGASVLGPRRLDKLGLGADVAQVTGALRSGRGKMLLFSGRRLWRFDVKAQMVDPRSASEVDRMFPGVPLDTHDVFQYREKAYFCQDRFYWRVSSRSELNQVDQVGYVTYDILQCPED
- phosphorylation of EGFR, western blotting: expression of MMP-9 in wild type COS-1 cells resulted in increased phosphorylation of EGFR as compared to vector control. This activation of EGFR did not occurred in CD44-silenced COS-1 cells transfected with MMP-9 cDNA
